Test results reported in US20240409645A1 (DUALYX, published 2024).
Each block holds one binder with its values, some of them ahead of it.

Molecular target: T1, human IL-2 receptor (IL-2Rα/IL-2Rβ/γc) (human, UniProt P01589 22-272; P14784 27-551; P31785 23-369)
T1 sequence 1: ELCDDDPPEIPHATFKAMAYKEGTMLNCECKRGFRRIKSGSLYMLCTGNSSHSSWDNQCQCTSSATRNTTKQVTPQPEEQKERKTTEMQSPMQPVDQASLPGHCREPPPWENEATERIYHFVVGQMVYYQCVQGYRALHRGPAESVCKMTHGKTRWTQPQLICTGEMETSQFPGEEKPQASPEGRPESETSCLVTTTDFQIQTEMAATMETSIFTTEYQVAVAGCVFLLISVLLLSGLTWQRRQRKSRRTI
T1 sequence 2: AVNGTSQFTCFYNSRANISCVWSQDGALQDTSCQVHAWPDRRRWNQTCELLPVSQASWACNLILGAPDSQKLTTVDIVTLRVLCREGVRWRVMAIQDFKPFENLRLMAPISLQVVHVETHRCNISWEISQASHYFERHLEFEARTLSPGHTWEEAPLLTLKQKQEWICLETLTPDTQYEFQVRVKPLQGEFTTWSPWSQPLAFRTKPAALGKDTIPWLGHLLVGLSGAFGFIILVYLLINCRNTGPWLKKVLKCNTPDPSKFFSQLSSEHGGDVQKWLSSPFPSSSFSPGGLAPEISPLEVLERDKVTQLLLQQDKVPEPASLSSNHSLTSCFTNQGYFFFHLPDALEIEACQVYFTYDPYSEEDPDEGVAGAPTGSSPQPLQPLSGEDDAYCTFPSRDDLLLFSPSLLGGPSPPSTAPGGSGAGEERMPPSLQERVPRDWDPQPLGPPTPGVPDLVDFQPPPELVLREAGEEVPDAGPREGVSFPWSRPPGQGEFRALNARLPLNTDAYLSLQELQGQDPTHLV
T1 sequence 3: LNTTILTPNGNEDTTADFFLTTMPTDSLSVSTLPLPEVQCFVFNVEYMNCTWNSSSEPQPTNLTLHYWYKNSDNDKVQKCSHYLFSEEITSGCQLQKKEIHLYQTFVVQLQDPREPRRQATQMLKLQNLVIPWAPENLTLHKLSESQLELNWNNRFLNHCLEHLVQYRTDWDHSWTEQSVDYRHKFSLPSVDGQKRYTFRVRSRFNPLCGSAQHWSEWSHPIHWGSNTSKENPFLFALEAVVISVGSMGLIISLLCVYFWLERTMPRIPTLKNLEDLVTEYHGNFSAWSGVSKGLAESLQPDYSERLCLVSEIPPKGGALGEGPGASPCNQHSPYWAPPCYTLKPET
Test: cell-based or functional assay

EC50 (nM) pSTAT5, NK, human PBMCs: 0.0993 nM
EC50 (nM) pSTAT5, Treg, human PBMCs: < 0.1 pM
Fold Max signal (% pSTAT5+) Treg/NK: 8 fold
Max signal (% pSTAT5+), NK: 7.35 % pSTAT5+
Max signal (% pSTAT5+), Treg: 62.4 % pSTAT5+
fold EC50 NK/Treg: > 994 fold
B1: DC00079 (other)
chain 1: QVQLVESGGGLVQAGGSLRLSCAASGIPFDNYAMGWFRQAPGKEREFVAARDLEGIITRYGDSVKGRFTISRGNAKNTVFLQMNSLKPEDTAVYYCAARDGGVVAGSRSSAQYNYWGQGTQVTVSSDKTHTCPPCPAPEAAGGPSVFLFPPKPKDTLMISRTPEVTCVVVDVSHEDPEVKFNWYVDGVEVHNAKTKPREEQYNSTYRVVSVLTVLHQDWLNGKEYKCKVSNKALGAPIEKTISKAKGQPREPQVYTLPPSRDELTKNQVSLTCLVKGFYPSDIAVEWESNGQPENNYKTTPPVLDSDGSFLLYSKLTVDKSRWQQGNVFSCSVMHEALHNHYTQKSLSLSPGK
chain 2: QVQLVESGGGLVQAGGSLTLSCAAPGRTFGTDVVGWFRQAPGKEREFVASISRSGDGIYYDDSVKGRFTISRNNAWNTVNLQMNSLKVEDTAVYYCAAGDGWSTYDYWGQGTQVTVSSGGGGSGGGGSGGGGSQVQLVESGGGLVQPGGSLRLSCATSGFTFRNNFMSWVRQAPGKGLEWVSTISYGGESTTYAESVKGRFTISRDNAKNTLYLQMNNLKPEDTAVYYCAKATSYDSIRSGSRGQGTQVTVSSGGGGSGGGGSGGGGSEVQLVESGGGLVQTGGSLRLSCAASGGTFSRDAMAWFRQVPGKEREFVALISWSGATTNYADSVKGRFAISRDNGKNTVYLQMNRLKPADTAIYYCAADRRPMGSRSYFEPTEYDDWGQGTQVTVSSGGGGSGGGGSGGGGSDKTHTCPPCPAPEAAGGPSVFLFPPKPKDTLMISRTPEVTCVVVDVSHEDPEVKFNWYVDGVEVHNAKTKPREEQYNSTYRVVSVLTVLHQDWLNGKEYKCKVSNKALGAPIEKTISKAKGQPREPQVYTLPPSRDELTKNQVSLTCLVKGFYPSDIAVEWESNGQPENNYKTTPPVLDSDGSFFLYSRLTVDKSRWQQGNVFSCSVMHEALHNHYTQKSLSLSPGK

EC50 (nM) pSTAT5, NK, human PBMCs: 0.00648 nM
EC50 (nM) pSTAT5, Treg, human PBMCs: < 0.1 pM
Fold Max signal (% pSTAT5+) Treg/NK: 4 fold
Max signal (% pSTAT5+), NK: 4.42 % pSTAT5+
Max signal (% pSTAT5+), Treg: 17.8 % pSTAT5+
fold EC50 NK/Treg: > 64.8 fold
B2: DC00080 (other)
chain 1: QVQLVESGGGLVQAGGSLRLSCAASGGTFRTRNMGWFRRAPGKEREFVAAVSWNVDNKLYADSVKGRFTISRDNGRNMVYLQMNSLKPEDTAVYYCAADNIPLSSDMRPTATEYDYWGQGTQVTVSSDKTHTCPPCPAPEAAGGPSVFLFPPKPKDTLMISRTPEVTCVVVDVSHEDPEVKFNWYVDGVEVHNAKTKPREEQYNSTYRVVSVLTVLHQDWLNGKEYKCKVSNKALGAPIEKTISKAKGQPREPQVYTLPPSRDELTKNQVSLTCLVKGFYPSDIAVEWESNGQPENNYKTTPPVLDSDGSFLLYSKLTVDKSRWQQGNVFSCSVMHEALHNHYTQKSLSLSPGK
chain 2: EVQLVESGGGLVQTGGSLRLSCAASGGTFSRDAMAWFRQVPGKEREFVALISWSGATTNYADSVKGRFAISRDNGKNTVYLQMNRLKPADTAIYYCAADRRPMGSRSYFEPTEYDDWGQGTQVTVSSGGGGSGGGGSGGGGSQVQLVESGGGLVQPGGSLRLSCATSGFTFRNNFMSWVRQAPGKGLEWVSTISYGGESTTYAESVKGRFTISRDNAKNTLYLQMNNLKPEDTAVYYCAKATSYDSIRSGSRGQGTQVTVSSGGGGSGGGGSGGGGSQVQLVESGGGLVQAGGSLTLSCAAPGRTFGTDVVGWFRQAPGKEREFVASISRSGDGIYYDDSVKGRFTISRNNAWNTVNLQMNSLKVEDTAVYYCAAGDGWSTYDYWGQGTQVTVSSGGGGSGGGGSGGGGSDKTHTCPPCPAPEAAGGPSVFLFPPKPKDTLMISRTPEVTCVVVDVSHEDPEVKFNWYVDGVEVHNAKTKPREEQYNSTYRVVSVLTVLHQDWLNGKEYKCKVSNKALGAPIEKTISKAKGQPREPQVYTLPPSRDELTKNQVSLTCLVKGFYPSDIAVEWESNGQPENNYKTTPPVLDSDGSFFLYSRLTVDKSRWQQGNVFSCSVMHEALHNHYTQKSLSLSPGK
